Data reported in publication PMC9381540, “USP21 promotes self-renewal and tumorigenicity of mesenchymal glioblastoma stem cells by deubiquitinating and stabilizing FOXD1” (Cell Death & Disease, 2022).

How the values were obtained:
[1] = target: T1, Flag-USP21 WT (ubiquitin-specific peptidase 21) (human, UniProt Q9UK80 1-565); test: pull-down; bacterially expressed GST or GST-FOXD1 immobilised (GST Protein Interaction Pull-Down Kit, Thermo Scientific), incubated with Flag-USP21 WT or C221A from HEK293T cells; analysed by Coomassie Brilliant Blue; conditions: both partners purified
T1 construct: ubiquitin-specific peptidase 21 (USP21), wild type; overexpression plasmid bought from GeneChem; source: HEK293T, transfected, in lysate (co-IP); for the GST pull-down 'lysed from HEK293T cells' (methods), 'purified recombinant protein' (results)
T1 sequence (looked up): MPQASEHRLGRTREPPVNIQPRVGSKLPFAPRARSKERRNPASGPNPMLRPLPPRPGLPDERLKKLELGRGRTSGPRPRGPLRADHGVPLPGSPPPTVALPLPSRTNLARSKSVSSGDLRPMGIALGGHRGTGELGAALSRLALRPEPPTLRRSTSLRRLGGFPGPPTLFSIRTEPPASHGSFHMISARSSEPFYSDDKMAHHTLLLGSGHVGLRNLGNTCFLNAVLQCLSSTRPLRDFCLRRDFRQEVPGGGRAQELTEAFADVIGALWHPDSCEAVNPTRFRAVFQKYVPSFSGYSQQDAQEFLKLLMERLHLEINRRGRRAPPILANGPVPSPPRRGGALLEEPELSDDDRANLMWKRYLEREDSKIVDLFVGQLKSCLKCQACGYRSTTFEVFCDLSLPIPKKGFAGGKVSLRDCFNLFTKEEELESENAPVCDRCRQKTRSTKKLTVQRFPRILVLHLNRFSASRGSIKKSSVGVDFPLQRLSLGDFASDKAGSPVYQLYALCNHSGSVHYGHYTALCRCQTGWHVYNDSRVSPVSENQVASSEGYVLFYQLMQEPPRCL

[2] = target: T2, Flag-USP21 C221A (catalytically inactive mutant) (human, UniProt Q9UK80 1-565, C221A); test: as above; conditions: both partners purified
T2 construct: also called C221A mutant; source: HEK293T, transfected, in lysate (co-IP); for the GST pull-down 'lysed from HEK293T cells' (methods), 'purified recombinant protein' (results)
T2 sequence (looked up): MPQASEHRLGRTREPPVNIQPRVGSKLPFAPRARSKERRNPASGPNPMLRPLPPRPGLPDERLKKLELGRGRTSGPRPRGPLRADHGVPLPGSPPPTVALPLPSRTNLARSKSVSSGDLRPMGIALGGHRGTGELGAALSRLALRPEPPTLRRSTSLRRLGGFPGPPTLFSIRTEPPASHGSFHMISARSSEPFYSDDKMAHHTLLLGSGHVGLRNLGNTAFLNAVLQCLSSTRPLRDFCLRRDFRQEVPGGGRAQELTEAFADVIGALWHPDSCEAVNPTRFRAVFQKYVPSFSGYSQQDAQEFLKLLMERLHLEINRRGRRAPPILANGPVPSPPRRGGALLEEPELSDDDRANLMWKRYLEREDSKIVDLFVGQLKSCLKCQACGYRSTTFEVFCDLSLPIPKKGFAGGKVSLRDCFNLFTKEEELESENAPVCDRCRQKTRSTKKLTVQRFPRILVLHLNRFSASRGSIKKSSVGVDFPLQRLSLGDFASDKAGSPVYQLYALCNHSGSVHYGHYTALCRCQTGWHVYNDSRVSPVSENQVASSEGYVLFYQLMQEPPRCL

- binding result [1]: binds
- binding result [2]: binds
B1: GST-FOXD1 (natural protein, UniProt Q16676 1-465, looked up)
chain: MTLSTEMSDASGLAEETDIDVVGEGEDEEDEEEEDDDEGGGGGPRLAVPAQRRRRRRSYAGEDELEDLEEEEDDDDILLAPPAGGSPAPPGPAPAAGAGAGGGGGGGGAGGGGSAGSGAKNPLVKPPYSYIALITMAILQSPKKRLTLSEICEFISGRFPYYREKFPAWQNSIRHNLSLNDCFVKIPREPGNPGKGNYWTLDPESADMFDNGSFLRRRKRFKRQPLLPPNAAAAESLLLRGAGAAGGAGDPAAAAALFPPAPPPPPHAYGYGPYGCGYGLQLPPYAPPSALFAAAAAAAAAAAFHPHSPPPPPPPHGAAAELARTAFGYRPHPLGAALPGPLPASAAKAGGPGASALARSPFSIESIIGGSLGPAAAAAAAAQAAAAAQASPSPSPVAAPPAPGSSGGGCAAQAAVGPAAALTRSLVAAAAAAASSVSSSAALGTLHQGTALSSVENFTARISNC
notes: Forkhead box D1 (FOXD1) fused to GST; also called immobilized GST-FOXD1; purified GST-FOXD1; source: bacterially expressed; 'purified' (results)
